For this test, the target named is T1, CD44 (isoform 4), Fc-fused (Homo sapiens, UniProt P16070-4, strain).
T1 construct: printed MW 94.4 kDa; Fc-fused, dimeric presentation; For selections, ELISA and HTRF it was chemically biotinylated by amine coupling; also called CD44iso4; CD44iso4-Fc fusion construct; source: bought: Promab Biotechnologies, produced in HEK293 cells; not shown: Fc (IgG1), C-terminal, kept
Description: SPR; single cycle kinetics; purified IgG4 captured by an immobilised anti-Fab antibody on a CM5 chip; CD44iso4 (Fc-fused, dimeric) injected in five concentrations between 80 and 0.3 nM; HBS with 0.05% Tween20, pH 7.5; 1:1 model; apparent (possible avidity from the dimeric target). The conditions noted are these: both partners purified.

B1: BIWA4 (bivatuzumab), as human IgG4 (antibody, V domains shown)
VH: EVQLVESGGGLVKPGGSLRLSCAASGFTFSSYDMSWVRQAPGKGLEWVSTISSGGSYTYYLDSIKGRFTISRDNAKNSLYLQMNSLRAEDTAVYYCARQGLDYWGRGTLVTVSS
VL: EIVLTQSPATLSLSPGERATLSCSASSSINYIYWYQQKPGQAPRLLIYLTSNLASGVPARFSGSGSGTDFTLTISSLEPEDFAVYYCLQWSSNPLTFGGGTKVEIK
notes: VH of BIWA4; human IgG4 heavy chain constant region from the in-house vector pHAT-hIgG4, with the hinge-stabilising S228P substitution; numbers count on: EU numbering; VL of BIWA4; light chain constant region of the vector pHAT-hIgG4; also called positive control; source: expiHEK293 cells, transfected, purified (Protein A beads)
Consider B1, for which the binding result is reported as “binds”.

The values are drawn from PMC10673843, “Selection, characterization and in vivo evaluation of novel CD44v6-targeting antibodies for targeted molecular radiotherapy” (Scientific Reports, 2023).
